B1: anti-hTROP-2 monoclonal antibody clone K5-70 (antibody, mouse IgG2a, V domains shown)
VH: QVQLQQPGAELVRPGASVKLSCKASGYTFTIYWINWVKQRPGQGLEWIGNIYPSDSYTNYNQKFKDKATLTVDKSSSTAYMQLSSPTSEDSAVYYCTRTSMADYWGQGTTLTVSS
VL: DILLTQSPAILSVSPGERVSFSCRASQSIGTSIHWYQQRTNGSPRLLIKYASESISGIPSRFSGSGSGTDFTLSINSVESEDIADYYCQQSNSWPFTFGSGTKLEIK
notes: mouse IgG2a, hybridoma FERM BP-11251; also called K5-70 antibody; mouse K5-70 antibody
B2: anti-hTROP-2 monoclonal antibody clone T6-16 (antibody, mouse IgG2a, V domains shown)
VH: EVQLQQSGPELVKPGASVKISCKASGYTFTDYNMHWVKQSHGKNLEWIGYIYPYNGGTGYNQRFKSRATMTVDKSSSTAYMELRSLTSDDSAVYYCAREDYGSSPSYAMDYWGQGTSVIVSS
VL: DVVMTQTPLSLPVSLGDQASISCRSSQSLVHGNGNTYLHWYLQKPGQSPKLLIYKVSNRFSGVPDRFSGSGSGTDFTLKISRVEAEDLGVYFCSQTTHVPTFGSGTKLEIK
notes: mouse IgG2a, hybridoma FERM BP-11346; also called T6-16 antibody

Key:
[1] = target: T1, recombinant protein of the hTROP-2 extracellular region (human, UniProt P09758 27-263); experiment: antigen-coated ELISA, plate coated with 0.5 µg/ml hTROP-2 extracellular region
T1 construct: produced with baculovirus, purified on Ni Sepharose; also called hTROP-2 EC; hTROP-2-EC-His; not shown: C-terminal myc-His tag from pcDNA4/myc-His A
T1 sequence: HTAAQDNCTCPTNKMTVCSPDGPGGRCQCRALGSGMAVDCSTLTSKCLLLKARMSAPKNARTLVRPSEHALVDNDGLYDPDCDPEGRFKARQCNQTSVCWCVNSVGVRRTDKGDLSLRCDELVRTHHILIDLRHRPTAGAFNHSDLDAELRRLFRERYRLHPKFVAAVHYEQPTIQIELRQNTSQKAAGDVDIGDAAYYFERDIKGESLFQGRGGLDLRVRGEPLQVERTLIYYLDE
Experimental: (§1) Furthermore, antigen affinity was also examined by an ELISA method. ELISA was carried out using an ELISA plate which was coated with the recombinant protein of the hTROP-2 extracellular region as described in Example 3. Specifically, a 96-well plate (BD FALCON) was coated with a 50 μl/well recombinant protein of a hTROP-2 extracellular region that had been diluted with PBS to 0.5 μg/ml (at 4° C. overnight). Thereafter, the resultant was washed with a washing buffer (PBS containing 0.05% Tween 20), and a blocking buffer (PBS containing 2% skim milk and 0.05% Tween 20) was then added thereto (200 μl/well) to block it (at room temperature for 1 hour). The resultant was washed with a washing buffer. […] The obtained dilution samples were each added in an amount of 50 μl/well to the above-described ELISA plate (at room temperature for 2 hours). […] After the mixture had been washed with a washing buffer, a TMB (3,3′,5,5′-tetramethylbenzidine: SIGMA) substrate solution was added (50 μl/well) to the resultant to carry out a color reaction. Then, 1 M sulfuric acid (25 μl/well) was added to the reaction product to terminate the reaction. Using Microplate reader Model 550 (BioRad), an absorbance at 450 nm was measured with an absorbance at 655 nm used as a reference.

[2] = target: T2, human TROP-1/EpCAM protein transiently expressed in CHO-K1 cells (human, UniProt P16422 24-314); experiment: FACS on CHO-K1 cells transiently expressing human EpCAM/TROP-1
T2 construct: whole, on cells; also called human EpCAM/TROP-1; hEpCAM; not shown: C-terminal myc/His tag from pcDNA3.1-hEpCAM-myc/His
T2 sequence (looked up): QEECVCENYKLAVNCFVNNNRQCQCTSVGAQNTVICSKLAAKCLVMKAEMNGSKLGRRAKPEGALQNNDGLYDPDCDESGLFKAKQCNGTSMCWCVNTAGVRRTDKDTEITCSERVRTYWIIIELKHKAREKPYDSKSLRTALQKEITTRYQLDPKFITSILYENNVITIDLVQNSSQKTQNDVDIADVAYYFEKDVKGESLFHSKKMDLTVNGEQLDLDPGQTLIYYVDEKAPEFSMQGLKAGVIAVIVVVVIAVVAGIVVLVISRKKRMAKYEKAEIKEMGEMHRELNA
Text: Specifically, each of an expression vector (mouse TROP-2-pcDNA3.1(+), furnished by the Institute of Molecular and Cellular Biosciences, the University of Tokyo) comprising the full-length cDNA of a mouse TROP-2 gene (GenBank accession No. NM_020047, Y08830), and an expression vector (pcDNA3.1-hEpCAM-myc/His) comprising the full-length cDNA of a human TROP-1/EpCAM gene (GenBank accession No. NM_002354), was transiently introduced into CHO-K1 cells, using Lipofectamine2000 reagent (Invitrogen). Thereafter, 24 to 48 hours later, the cells were removed from a culture dish by treating them with trypsin, and a cell suspension was then prepared. The thus prepared cell suspension was successively reacted with the produced anti-hTROP-2 monoclonal antibody (0.1 μg) and with PE-labeled anti-mouse IgG, and it was then analyzed by FACSCalibur.

[3] = target: T3, recombinant hTACSTD2-Fc-His protein (Creative BioMart) (human, UniProt P09758 27-274, limits assumed); experiment: low-density antigen-coated ELISA, plate coated with 0.1 µg/mL hTACSTD2-Fc-His
T3 construct: bought protein; also called hTROP-2 (low-density antigen-coated ELISA); not shown: Fc part of the bought fusion protein; not described; His tag
T3 sequence: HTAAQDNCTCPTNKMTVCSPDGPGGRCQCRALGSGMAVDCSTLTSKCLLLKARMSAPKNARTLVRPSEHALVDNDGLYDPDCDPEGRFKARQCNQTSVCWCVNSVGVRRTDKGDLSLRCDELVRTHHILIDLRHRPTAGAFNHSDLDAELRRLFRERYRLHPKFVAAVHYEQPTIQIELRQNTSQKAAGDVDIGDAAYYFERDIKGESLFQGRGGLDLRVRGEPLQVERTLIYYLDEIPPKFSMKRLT
Experimental: as §1, with “Specifically, a 96-well plate (BD FALCON) was coated with a 50 μl/well recombinant protein of a hTROP-2 extracellular region that had been diluted with PBS to 0.5 μg/ml (at 4° C. overnight).” left out

| Binder | EC50 [1] | binding result [2] | EC50 [3] |
| --- | --- | --- | --- |
| B1 | 0.027 µg/mL | no binding (tested: 0.1 µg antibody) | 0.012 µg/mL |
| B2 | 0.03 µg/mL | no binding (tested: 0.1 µg antibody) | 0.041 µg/mL |
